Laboratory results: patent US20150203577A1 (Chugai, published 2015)
Substitutions are numbered along the chain they refer to.

B1: H237-MB823/MRAL-k0 (antibody, mouse IgG1, kappa)
heavy: QVQLQESGPGLVKPSETLSLTCAVSGHSISHDHAWSWVRQPPGEGLEWIGFISYSGITNYNPSLQGRVTISRDNSKNTLYLQMNSLRAEDTAVYYCARSLARTTAMDYWGEGTLVTVSSAKTTPPSVYPLAPGSAAQTNSMVTLGCLVKGYFPEPVTVTWNSGSLSSGVHTFPAVLQSDLYTLSSSVTVPSSTWPSETVTCNVAHPASSTKVDKKIVPRDCGCKPCICEPNEVELVFIFPPKPKDVLTITLTPKVTCVVVDISKDDPEVQFSWFVDDVEVHTAQTQPREEQFNSTFRSVSELPIMHQDWLNGKEFKCRVNSDAFPAFIEKTISKTKGRPKAPQVYTIPPPKEQMAKDKVSLTCMITDFFPEDITVEWQWNGQPAENYKNTQPIMDTDGSYFVYSKLNVQKSNWEAGNTFTCSVLHEGLHNHHTEKSLSHSPGK
light: not shown
notes: copies: 2 + 2
B2: H237-MB824/MRAL-k0 (antibody, mouse IgG1, kappa)
heavy: B1 heavy with F327Y
light: not shown
notes: copies: 2 + 2
B3: H237-MB825/MRAL-k0 (antibody, mouse IgG1, kappa)
heavy: B1 heavy with F327P, E329Y
light: not shown
notes: copies: 2 + 2
B4: H237-MB826/MRAL-k0 (antibody, mouse IgG1, kappa)
heavy: B1 heavy with D322A, A323G
light: not shown
notes: copies: 2 + 2
B5: H237-MB827/MRAL-k0 (antibody, mouse IgG1, kappa)
heavy: B1 heavy with D322A, A323G, F327Y
light: not shown
notes: copies: 2 + 2
B6: H237-MB828/MRAL-k0 (antibody, mouse IgG1, kappa)
heavy: B1 heavy with D322A, A323G, F327P, E329Y
light: not shown
notes: copies: 2 + 2
B7: H237-MB829/MRAL-k0 (antibody, mouse IgG1, kappa)
heavy: B1 heavy with D322A, A323G, F327P, K330R
light: not shown
notes: copies: 2 + 2
B8: H237-MB831/MRAL-k0 (antibody, mouse IgG1, kappa)
heavy: B1 heavy with D322A, K330R
light: not shown
notes: copies: 2 + 2
B9: H237-MB833/MRAL-k0 (antibody, mouse IgG1, kappa)
heavy: B1 heavy with D322A, F327Y, K330R
light: not shown
notes: copies: 2 + 2
B10: H237-MB834/MRAL-k0 (antibody, mouse IgG1, kappa)
heavy: B1 heavy with D322A, F327P, E329Y, K330R
light: not shown
notes: copies: 2 + 2
B11: H237-MB835/MRAL-k0 (antibody, mouse IgG1, kappa)
heavy: B1 heavy with K264D, D322A, F327P
light: not shown
notes: copies: 2 + 2
B12: H237-MB846/MRAL-k0 (antibody, mouse IgG1, kappa)
heavy: B1 heavy with K264D, A323G, F327P
light: not shown
notes: copies: 2 + 2
B13: H237-MB847/MRAL-k0 (antibody, mouse IgG1, kappa)
heavy: B1 heavy with Q291L, A323G, F327P
light: not shown
notes: copies: 2 + 2
B14: H237-MB848/MRAL-k0 (antibody, mouse IgG1, kappa)
heavy: B1 heavy with N320D, A323G, F327P
light: not shown
notes: copies: 2 + 2
B15: H237-MB849/MRAL-k0 (antibody, mouse IgG1, kappa)
heavy: B1 heavy with A323G, F327Y
light: not shown
notes: copies: 2 + 2

What follows are binders tested against T1, mouse FcγRII extracellular domain, C-terminal His tag (mouse, UniProt P08101 30-210) (assay: SPR (Biacore T200), antibody captured on Protein L, mFcγR analyte).
T1 construct: also called mFcγRII; mFcgRII
T1 sequence: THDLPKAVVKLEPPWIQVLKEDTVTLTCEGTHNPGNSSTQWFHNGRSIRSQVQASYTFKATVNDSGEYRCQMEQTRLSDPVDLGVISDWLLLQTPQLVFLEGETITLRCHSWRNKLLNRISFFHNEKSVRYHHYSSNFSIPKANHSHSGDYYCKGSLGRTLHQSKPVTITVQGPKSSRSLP
Procedure: (§1) Each altered antibody was analyzed for its interaction with each Fcγ receptor prepared above using Biacore T100 (GE Healthcare Japan Corp.), Biacore T200 (GE Healthcare Japan Corp.), Biacore A100, or Biacore 4000. The running buffer used was HBS-EP+ (GE Healthcare Japan Corp.). The assay temperature was set to 25° C. The sensor chips used were chips prepared by immobilizing Protein L (ACTIGEN or BioVision) onto Series S Sensor Chip CM5 (GE Healthcare Japan Corp.) or Series S Sensor Chip CM4 (GE Healthcare Japan Corp.) by the amine coupling method.
(§2) In order to calculate the KD value of each altered antibody for FcγR, kinetic analysis was conducted according to the following method: first, the antibody of interest was captured onto any of these chips and allowed to interact with mFcγR diluted with a running buffer. For the obtained sensorgram, the assay results were globally fit into the 1:1 Langmuir binding model using Biacore Evaluation Software to calculate an association rate constant ka (L/mol/s) and a dissociation rate constant kd (1/s). From these values, the dissociation constant KD (mol/L) was calculated.

B1 and B2 are within 1.5-fold of each other in Kd: 8.39 nM for the first, 7.51 nM for the second.

Compared with B3, B4 is 1.5-fold higher in Kd: 7.38 nM for the first, 11.4 nM for the second.

B5 and B6 are within 1.5-fold of each other in Kd: 9.77 nM for the first, 7.4 nM for the second.

Going from B7 to B8, the Kd rises from 6.22 nM to 9.4 nM (1.5-fold).

B9 and B10 are within 1.5-fold of each other in Kd: 8.31 nM for the first, 12.4 nM for the second.

Compared with B11, B12 is 2.7-fold lower in Kd: 8 nM for the first, 2.91 nM for the second.

B13 and B14 are within 1.5-fold of each other in Kd: 4.81 nM for the first, 4.58 nM for the second.

With B15 the Kd was 6.68 nM.

Going from B1 to B2, the “relative mFcγRII-binding activity (mIgG1 = 1)” value rises from 25 fold vs H237-mIgG1/MRAL-k0 to 28 fold vs H237-mIgG1/MRAL-k0.

First: B3
Second: B4
The “relative mFcγRII-binding activity (mIgG1 = 1)” value of the first is higher: 28.4 fold vs H237-mIgG1/MRAL-k0 for the first, 18.5 fold vs H237-mIgG1/MRAL-k0 for the second.

Compared with B5, B6 is higher in “relative mFcγRII-binding activity (mIgG1 = 1)” value: 21.5 fold vs H237-mIgG1/MRAL-k0 for the first, 28.4 fold vs H237-mIgG1/MRAL-k0 for the second.

Going from B7 to B8, the “relative mFcγRII-binding activity (mIgG1 = 1)” value falls from 33.8 fold vs H237-mIgG1/MRAL-k0 to 22.3 fold vs H237-mIgG1/MRAL-k0.

First: B9
Second: B10
The “relative mFcγRII-binding activity (mIgG1 = 1)” value of the first is higher: 25.3 fold vs H237-mIgG1/MRAL-k0 for the first, 17 fold vs H237-mIgG1/MRAL-k0 for the second.

Compared with B11, B12 is higher in “relative mFcγRII-binding activity (mIgG1 = 1)” value: 26.3 fold vs H237-mIgG1/MRAL-k0 for the first, 72.1 fold vs H237-mIgG1/MRAL-k0 for the second.

Compared with B13, B14 is higher in “relative mFcγRII-binding activity (mIgG1 = 1)” value: 43.7 fold vs H237-mIgG1/MRAL-k0 for the first, 45.8 fold vs H237-mIgG1/MRAL-k0 for the second.

With B15 the “relative mFcγRII-binding activity (mIgG1 = 1)” value was 31.4 fold vs H237-mIgG1/MRAL-k0.

Target: T2, mouse FcγRIII extracellular domain, C-terminal His tag (mouse, UniProt P08508 31-215)
T2 construct: also called mFcγRIII; mFcgRIII
T2 chain: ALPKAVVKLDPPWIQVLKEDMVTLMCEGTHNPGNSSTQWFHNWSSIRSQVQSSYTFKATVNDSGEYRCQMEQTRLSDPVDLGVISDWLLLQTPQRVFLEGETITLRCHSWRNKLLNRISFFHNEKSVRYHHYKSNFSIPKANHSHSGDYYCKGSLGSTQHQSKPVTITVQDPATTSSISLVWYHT
Assay: as above
Procedure: as §1, §2

B1 and B2 are within 1.5-fold of each other in Kd: 575 nM for the first, 500 nM for the second.

B3 and B4 are within 1.5-fold of each other in Kd: 564 nM for the first, 829 nM for the second.

B5 and B6 are within 1.5-fold of each other in Kd: 744 nM for the first, 571 nM for the second.

First: B7
Second: B8
The Kd of the first is 1.6-fold lower: 445 nM for the first, 716 nM for the second.

Going from B9 to B10, the Kd rises from 630 nM to 976 nM (1.5-fold). The first binds more tightly here.

First: B11
Second: B12
The Kd of the first is 3-fold higher: 401 nM for the first, 133 nM for the second.

B13 and B14 are within 1.5-fold of each other in Kd: 213 nM for the first, 308 nM for the second.

Binder B15 has a Kd of 436 nM.

Going from B1 to B2, the “relative mFcγRIII-binding activity (mIgG1 = 1)” value rises from 0.5 fold vs H237-mIgG1/MRAL-k0 to 0.6 fold vs H237-mIgG1/MRAL-k0.

Compared with B3, B4 is lower in “relative mFcγRIII-binding activity (mIgG1 = 1)” value: 0.5 fold vs H237-mIgG1/MRAL-k0 for the first, 0.3 fold vs H237-mIgG1/MRAL-k0 for the second.

First: B5
Second: B6
The “relative mFcγRIII-binding activity (mIgG1 = 1)” value of the first is lower: 0.4 fold vs H237-mIgG1/MRAL-k0 for the first, 0.5 fold vs H237-mIgG1/MRAL-k0 for the second.

First: B7
Second: B8
The “relative mFcγRIII-binding activity (mIgG1 = 1)” value of the first is higher: 0.6 fold vs H237-mIgG1/MRAL-k0 for the first, 0.4 fold vs H237-mIgG1/MRAL-k0 for the second.

Going from B9 to B10, the “relative mFcγRIII-binding activity (mIgG1 = 1)” value falls from 0.4 fold vs H237-mIgG1/MRAL-k0 to 0.3 fold vs H237-mIgG1/MRAL-k0.

Compared with B11, B12 is higher in “relative mFcγRIII-binding activity (mIgG1 = 1)” value: 0.7 fold vs H237-mIgG1/MRAL-k0 for the first, 2.1 fold vs H237-mIgG1/MRAL-k0 for the second.

Going from B13 to B14, the “relative mFcγRIII-binding activity (mIgG1 = 1)” value falls from 1.3 fold vs H237-mIgG1/MRAL-k0 to 0.9 fold vs H237-mIgG1/MRAL-k0.

With B15 the “relative mFcγRIII-binding activity (mIgG1 = 1)” value was 0.6 fold vs H237-mIgG1/MRAL-k0.
